We go through 2 molecules from US9260754B2, “Connexin mutation detection for lymphatic variation and disease” (University of Pittsburgh—Of the Commonwealth System of …, priority 2010, dated 2016).

“Also recorded” adds a separate entry of the source.

Test [1] deals with HeLa cells. Kind of test: Calcein AM scrape loading and dye transfer in stably transfected HeLa cells. The format is cell-based, human. The note with it: for dye transfer: ratio, rate normalized to untransfected HeLa cells, Calcein AM scrape loading, 10 min, stably transfected HeLa, mean ± SEM. How it is done:
A confluent monolayer of HeLa cells (untransfected and stably transfected, as described above) was grown in DMEM with 10% FBS in coverslip bottom plates (MatTek) and placed in a temperature controlled microincubator (Zeiss). A 10×, 0.4 NA objective was used to collect DIC and GFP images every 5 seconds for 10 minutes without changing media. A pipette loaded with 1 μl Calcein AM (Invitrogen), a gap junction permissive dye with molecular weight 662, −4 charge when intracellular and fluorescent, was used to create a scrape across the monolayer. At least 5 replicate dishes were analyzed on the same day, and WT hCx47 expressing HeLas were grown and assayed as a concurrent control; assays were performed on at least 2 different batches of HeLa cells on different days. Quantitation of the rate of spread was calculated using MetaMorph, by obtaining integrated intensity at the 10th time point, within the first minute of imaging, and then at the endpoint at 10 min, and subtracting the initial intensity from that at the endpoint. Results are reported as mean and SEM, and tested for significance (p<0.05) using an unpaired Student's t-test.
In these mutants, Cx47 appears to concentrate in the ER. Unlike electrophysiologic measurements, dye transfer assays are used to assess GJIC of relatively large molecules. We also found significant differences in GJIC in HeLa cells overexpressing Cx47 lymphedema associated mutations by assessing rates of dye transfer in a conventional scrape assay using stably transfected HeLa cells normalized to rates in untransfected HeLa cells (FIG. 7D; Table 3). […] It is not surprising that the mutants show some differences in GJIC between the electrophysiologic and dye transfer assays given that they are designed to measure different kinds of transport and that Cx channel permeability is now believed to be governed by factors including molecular shape, charge and size, in addition to channel conformation and composition.

For test [2], the system named is Adult human dermal lymphatic microvascular endothelial cells. In words: Lucifer yellow microinjection dye spread in lymphatic endothelial cells expressing mutant constructs. The note with it: Dye spread to tiers of LECs after 2 min; Lucifer yellow microinjection; mean ± SEM. The format is cell-based. How it is done: Adult human dermal lymphatic microvascular endothelial cells were cultured in EGM™-2 MV (both from Lonza). Cells were electroporated with 2 μg cDNA of the EGFP tagged mutant constructs and then selected with G418 as described above. Cells were microinjected using a combination (1:4 ratio) of 70 kd Texas Red dextran (Invitrogen) to mark injected cell for reference and Lucifer yellow, a known gap junction permeable dye (m.w. 443, −2 charge), to assess change in extent of spread (Abbaci M, et al. Advantages and limitations of commonly used methods to assay the molecular permeability of gap junctional intercellular communication. Biotechniques 2008; 45:33-52, 6-62). All cells were injected using constant conditions and cells were scored for dye spread in tiers from reference cell, using constant exposure time and thresholding, and were imaged using a Nikon TE2000 with temperature controlled motorized stage and Qlmaging Retiga CCD camera. Images were obtained using differential interference contrast (DIC) and standard filters for EGFP (identify expression of mutation), DAPI (for Lucifer yellow) and dsRed (for dextran) preinjection, immediately post-injection and 2 min after injection. Results were calculated as mean SEM and statistical significance was determined in comparison to WT-hCx47-EGFP expressing cells using a Mann-Whitney Test.

Test [3] concerns HeLa cells. In words: Wound assay (proliferation/migration) in confluent transfected HeLa cells. It counts as cell-based, human. Particulars: for wound assay: fraction of original wound in HeLa cell monolayer after 24 hrs, mean ± SEM. How it is done:
The wound assay, a measure of proliferation/migration, was performed using differential interference contrast time lapse of over 24 hrs using confluent transfected HeLa cells. Analysis was done using TScratch (Geback T, et al. TScratch: a novel and simple software tool for automated analysis of monolayer wound healing assays. Biotechniques 2009; 46:265-74), mean±SEM of at least 10 positions along wound; the scrape width was normalized to the first image for each position. In all cases a two tailed student's T test was applied with p<0.05 considered significant.

Test [4] deals with HeLa cells. In words: Cx47 gap junction plaque formation by immunofluorescent confocal microscopy in transfected HeLa cells. The format is cell-based, human. The note with it: near confluent transfected HeLa cells. The method, then: Human neonatal foreskin was collected anonymously as discarded tissue according to an IRB protocol. Samples were collected immediately after harvest in DMEM, then fixed in 2% paraformaldehyde for 2 hrs, then stored in 30% sucrose in 1×PBS overnight for cryosectioning, and sectioned in 6 μm slices at −30° C. Transfected (stable and transient) and untransfected HeLa cells were grown to near confluence in coverslip bottom dishes. All cells were rinsed with PBS and fixed with 2% paraformaldehyde. Subsequently, tissue and HeLa cells were processed similarly: following permeabilization with 0.1% Triton X, cells were blocked with 2% BSA. A human Cx47 antibody (ab) was obtained from the S. Scherer laboratory: polyclonal rabbit against amino acids 344-399 in the cytoplasmic C-terminal tail; we used human CNS tissue and positive oligodendrocyte staining as a positive control and primary antibody delete and rabbit IgG as negative controls (data not shown). Cx47 ab was diluted in 0.5% BSA in a 1:200 ratio, applied to cells and incubated at RT for one hour. Mouse monoclonal Proxl (Chemicon) was used as a lymphatic marker for the foreskin samples. Cells were incubated with the secondary abs (Donkey Anti-Rabbit Cy5 and Donkey Anti-Mouse Cy3; Invitrogen) for one hour at RT and washed; Draq5 was used as a nuclear marker. HeLa images were acquired with an inverted Olympus Fluoview 1000 Confocal Microscope 100× oil, 1.4 NA objective. Foreskin images were acquired on a Zeiss Meta LSM 510 inverted confocal microscope with 40× oil, 1.3 N.A. objective. LECs (primary human microvascular adult dermal lymphatics; Lonza) were grown in fibronectin coated coverslip bottom MatTeks dishes in EGM™-2 MV—Microvascular Endothelial Cell Medium-2 (Lonza Inc.) to approximately 80% confluence, and prepared similarly but a commercially available (AbCam) Cx47 ab, polyclonal rabbit against amino acids 41-70 in the human sequence was used along with Drag 5 nuclear marker and phalloidin to mark f-actin.
Immunofluorescence microscopy determines the presence or absence of Cx47 gap junction plaques when the constructs are transiently expressed in HeLa cells. Cx plaques reflect a physiologic accumulation of Cx channels in the cell membrane between cells (tens to thousands of channels); thus plaques are indicative of normal trafficking and gap junction formation at the cell membrane.
Immunofluorescence microscopy determines the presence or absence of Cx47 gap junction plaques when the constructs are transiently expressed in HeLa cells. A human Cx47 antibody was obtained: polyclonal rabbit against amino acids 344-399 in the cytoplasmic C-terminal tail (Orthmann-Murphy J L, et al. Mol Cell Neurosci 2007; 34:629-41); we used human CNS tissue and positive oligodendrocyte staining as a positive control and primary antibody delete as a negative control (data not shown). Cultured HeLa cells were routinely fixed and stained with the primary antibodies against Cx47, along with a nuclear marker, and transfected cells were identified by their EGFP signal. Plaques were imaged using an Olympus Fluoview 1000 confocal microscope, 100× oil objective.

B1: G146S: Cx47 missense mutant G146S (436G>A), intracellular loop, construct expressed in HeLa cells or LECs (protein, listed as Homo sapiens)
chain: MSWSFLTRLLEEIHNHSTFVGKVWLTVLVVFRIVLTAVGGEAIYSDEQAKFTCNTRQPGCDNVCYDAFAPLSHVRFWVFQIVVISTPSVMYLGYAVHRLARASEQERRRALRRRPGPRRAPRAHLPPPHAGWPEPADLGEEEPMLSLGEEEEEEETGAAEGAGEEAEEAGAEEACTKAVGADGKAAGTPGPTGQHDGRRRIQREGLMRVYVAQLVARAAFEVAFLVGQYLLYGFEVRPFFPCSRQPCPHVVDCFVSRPTEKTVFLLVMYVVSCLCLLLNLCEMAHLGLGSAQDAVRGRRGPPASAPAPAPRPPPCAFPAAAAGLACPPDYSLVVRAAERARAHDQNLANLALQALRDGAAAGDRDRDSSPCVGLPAASRGPPRAGAPASRTGSATSAGTVGEQGRPGTHERPGAKPRAGSEKGSASSRDGKTTVWI
As to B1, the dye transfer with HeLa cells [1] is reported as 1.05. In the test on HeLa cells [1] (stably transfected HeLa cells, scrape assay), the “Calcein AM dye transfer compared to WT-hCx47 transfected HeLa cells (in words)” value is “less”. In test [2], the LEC spread came to 2.0 tiers. Also, in the test on HeLa cells [3] (HeLa cells, cell scratch assay), the “wound closure compared to WT-hCx47-EGFP transfected cells (in words)” value is listed as “faster wound closure; also recorded: more rapid closure”. Moreover, in the test on HeLa cells [3], the wound assay is given as 0.62. In the test on HeLa cells [4], the “Cx47 plaque formation (in words)” value is listed as “Cx47 intercellular plaques”.

B2: WT-hCx47: human wild type Cx47 construct in bicistronic pIRES2-EGFP vector, expressed in HeLa cells or LECs (protein, UniProt Q5T442 1-439, looked up)
Gap junction gamma-2 protein: MTNMSWSFLTRLLEEIHNHSTFVGKVWLTVLVVFRIVLTAVGGEAIYSDEQAKFTCNTRQPGCDNVCYDAFAPLSHVRFWVFQIVVISTPSVMYLGYAVHRLARASEQERRRALRRRPGPRRAPRAHLPPPHAGWPEPADLGEEEPMLGLGEEEEEEETGAAEGAGEEAEEAGAEEACTKAVGADGKAAGTPGPTGQHDGRRRIQREGLMRVYVAQLVARAAFEVAFLVGQYLLYGFEVRPFFPCSRQPCPHVVDCFVSRPTEKTVFLLVMYVVSCLCLLLNLCEMAHLGLGSAQDAVRGRRGPPASAPAPAPRPPPCAFPAAAAGLACPPDYSLVVRAAERARAHDQNLANLALQALRDGAAAGDRDRDSSPCVGLPAASRGPPRAGAPASRTGSATSAGTVGEQGRPGTHERPGAKPRAGSEKGSASSRDGKTTVWI
B2: the dye transfer with HeLa cells [1] is listed as 1.80. In addition, in test [2], the LEC spread is listed as 1.4 tiers. Besides, in the test on HeLa cells [3], the wound assay is 0.72. In addition, the “Cx47 plaque formation (in words)” value was “Presence” in the test on HeLa cells [4] and “Cx47 intercellular plaques” in the test with HeLa cells [4] (listed as WT-hCx47-EGFP).
